Measurements reported in US20220308072A1.

Columns and labels:
[1] = target: Recombinant, his tagged full length human frataxin protein (Abcam ab95502) (human) (UniProt Q16595); assay: Simoa sandwich 3-step; capture Ab-4
[2] = target: Recombinant, his tagged full length human frataxin protein (Abcam ab95502) (human) (UniProt Q16595); assay: Simoa sandwich 3-step; capture Ab-3
[3] = target: Recombinant, his tagged full length human frataxin protein (Abcam ab95502) (human) (UniProt Q16595); assay: Simoa sandwich 3-step; capture Ab-5
[4] = target: Recombinant, his tagged full length human frataxin protein (Abcam ab95502) (human) (UniProt Q16595); assay: Simoa sandwich 3-step; capture Ab-2
[5] = target: Recombinant, his tagged full length human frataxin protein (Abcam ab95502) (human) (UniProt Q16595); assay: Simoa sandwich 3-step; capture Ab-4; frataxin 100 pg/mL
[6] = target: Recombinant, his tagged full length human frataxin protein (Abcam ab95502) (human) (UniProt Q16595); assay: Simoa sandwich 3-step; capture Ab-3; frataxin 100 pg/mL
[7] = target: Recombinant, his tagged full length human frataxin protein (Abcam ab95502) (human) (UniProt Q16595); assay: Simoa sandwich 3-step; capture Ab-5; frataxin 100 pg/mL
[8] = target: Recombinant, his tagged full length human frataxin protein (Abcam ab95502) (human) (UniProt Q16595); assay: Simoa sandwich 3-step; capture Ab-2; frataxin 100 pg/mL
[9] = target: Recombinant, his tagged full length human frataxin protein (Abcam ab95502) (human) (UniProt Q16595); assay: Simoa sandwich 3-step; capture Ab-1; frataxin 100 pg/mL
[10] = target: Recombinant, his tagged full length human frataxin protein (Abcam ab95502) (human) (UniProt Q16595); assay: Simoa sandwich 3-step; capture Ab-4; frataxin 1000 pg/mL
[11] = target: Recombinant, his tagged full length human frataxin protein (Abcam ab95502) (human) (UniProt Q16595); assay: Simoa sandwich 3-step; capture Ab-3; frataxin 1000 pg/mL
[12] = target: Recombinant, his tagged full length human frataxin protein (Abcam ab95502) (human) (UniProt Q16595); assay: Simoa sandwich 3-step; capture Ab-5; frataxin 1000 pg/mL
[13] = target: Recombinant, his tagged full length human frataxin protein (Abcam ab95502) (human) (UniProt Q16595); assay: Simoa sandwich 3-step; capture Ab-2; frataxin 1000 pg/mL
[14] = target: Recombinant, his tagged full length human frataxin protein (Abcam ab95502) (human) (UniProt Q16595); assay: Simoa sandwich 3-step; capture Ab-1; frataxin 1000 pg/mL
[15] = target: Recombinant, his tagged full length human frataxin protein (Abcam ab95502) (human) (UniProt Q16595); assay: Simoa sandwich 3-step; capture Ab-5; frataxin 10000 pg/mL
[16] = target: Recombinant, his tagged full length human frataxin protein (Abcam ab95502) (human) (UniProt Q16595); assay: Simoa sandwich 3-step; capture Ab-2; frataxin 10000 pg/mL
[17] = target: Recombinant, his tagged full length human frataxin protein (Abcam ab95502) (human) (UniProt Q16595); assay: Simoa sandwich 3-step; capture Ab-1; frataxin 10000 pg/mL
[18] = target: Recombinant, his tagged full length human frataxin protein (Abcam ab95502) (human) (UniProt Q16595); assay: Simoa sandwich 3-step; capture Ab-1
[19] = target: Recombinant, his tagged full length human frataxin protein (Abcam ab95502) (human) (UniProt Q16595); assay: Simoa sandwich 2-step; capture Ab-2
[20] = target: Recombinant, his tagged full length human frataxin protein (Abcam ab95502) (human) (UniProt Q16595); assay: Simoa sandwich 3-step; capture Ab-2; remark: listed apart in the source
[21] = target: Recombinant, his tagged full length human frataxin protein (Abcam ab95502) (human) (UniProt Q16595); assay: Simoa sandwich 2-step; capture Ab-1
[22] = target: Recombinant, his tagged full length human frataxin protein (Abcam ab95502) (human) (UniProt Q16595); assay: Simoa sandwich 3-step; capture Ab-1; remark: listed apart in the source
[23] = target: Recombinant, his tagged full length human frataxin protein (Abcam ab95502) (human) (UniProt Q16595); assay: Simoa sandwich 2-step; capture Ab-2; frataxin 100 pg/mL
[24] = target: Recombinant, his tagged full length human frataxin protein (Abcam ab95502) (human) (UniProt Q16595); assay: Simoa sandwich 3-step; capture Ab-2; frataxin 100 pg/mL; remark: listed apart in the source
[25] = target: Recombinant, his tagged full length human frataxin protein (Abcam ab95502) (human) (UniProt Q16595); assay: Simoa sandwich 2-step; capture Ab-1; frataxin 100 pg/mL
[26] = target: Recombinant, his tagged full length human frataxin protein (Abcam ab95502) (human) (UniProt Q16595); assay: Simoa sandwich 3-step; capture Ab-1; frataxin 100 pg/mL; remark: listed apart in the source
[27] = target: Recombinant, his tagged full length human frataxin protein (Abcam ab95502) (human) (UniProt Q16595); assay: Simoa sandwich 2-step; capture Ab-2; frataxin 1000 pg/mL
[28] = target: Recombinant, his tagged full length human frataxin protein (Abcam ab95502) (human) (UniProt Q16595); assay: Simoa sandwich 3-step; capture Ab-2; frataxin 1000 pg/mL; remark: listed apart in the source
[29] = target: Recombinant, his tagged full length human frataxin protein (Abcam ab95502) (human) (UniProt Q16595); assay: Simoa sandwich 2-step; capture Ab-1; frataxin 1000 pg/mL
[30] = target: Recombinant, his tagged full length human frataxin protein (Abcam ab95502) (human) (UniProt Q16595); assay: Simoa sandwich 3-step; capture Ab-1; frataxin 1000 pg/mL; remark: listed apart in the source
[31] = target: Recombinant, his tagged full length human frataxin protein (Abcam ab95502) (human) (UniProt Q16595); assay: Simoa sandwich 3-step; capture Ab-4; frataxin 10000 pg/mL
[32] = target: Recombinant, his tagged full length human frataxin protein (Abcam ab95502) (human) (UniProt Q16595); assay: Simoa sandwich 3-step; capture Ab-3; frataxin 10000 pg/mL
[33] = target: Recombinant, his tagged full length human frataxin protein (Abcam ab95502) (human) (UniProt Q16595); assay: Simoa sandwich 2-step; capture Ab-2; frataxin 10000 pg/mL
[34] = target: Recombinant, his tagged full length human frataxin protein (Abcam ab95502) (human) (UniProt Q16595); assay: Simoa sandwich 3-step; capture Ab-2; frataxin 10000 pg/mL; remark: listed apart in the source
[35] = target: Recombinant, his tagged full length human frataxin protein (Abcam ab95502) (human) (UniProt Q16595); assay: Simoa sandwich 2-step; capture Ab-1; frataxin 10000 pg/mL
[36] = target: Recombinant, his tagged full length human frataxin protein (Abcam ab95502) (human) (UniProt Q16595); assay: Simoa sandwich 3-step; capture Ab-1; frataxin 10000 pg/mL; remark: listed apart in the source

Sequence of UniProt Q16595 (Q16595 42-210): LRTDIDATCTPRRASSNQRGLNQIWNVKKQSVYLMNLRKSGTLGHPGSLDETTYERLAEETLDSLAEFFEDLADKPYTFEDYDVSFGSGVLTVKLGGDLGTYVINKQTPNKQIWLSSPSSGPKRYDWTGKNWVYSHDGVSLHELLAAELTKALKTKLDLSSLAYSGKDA

**Q.** Which results are given for “Ab-1, unconjugated mouse monoclonal to human Frataxin (LSBio LS-C760752) (antibody)”?
**A.** LOD [1]: 66 pg/mL; LOD [2]: 23.8 pg/mL; LOD [3]: 4.85 pg/mL; LOD [4]: 7.78 pg/mL; Ave AEB [5]: 4.72 AEB; S/B [5]: 1.37; Ave AEB [6]: 1.92 AEB; S/B [6]: 2.05; Ave AEB [7]: 0.834 AEB; S/B [7]: 9.35; Ave AEB [8]: 0.0069 AEB; S/B [8]: 4.45; Ave AEB [9]: 0.007 AEB; Ave AEB [10]: 12.4 AEB; S/B [10]: 3.63; Ave AEB [11]: 10.3 AEB; S/B [11]: 11; Ave AEB [12]: 8.56 AEB; S/B [12]: 95.9; Ave AEB [13]: 0.0712 AEB; S/B [13]: 46.2; Ave AEB [14]: 0.0953 AEB; Ave AEB [15]: 28.9 AEB; S/B [15]: 324; Ave AEB [16]: 1.36 AEB; S/B [16]: 885; Ave AEB [17]: 1.19 AEB

**Q.** Which LOD [1] does the source give for “Ab-2, unconjugated mouse monoclonal to Human Frataxin FXN (LSBio LS-C755462) (antibody)” here?
**A.** The LOD was 89.6 pg/mL.

**Q.** What about the LOD [2] of the same substance?
**A.** Its LOD is 18 pg/mL.

**Q.** And the LOD [3]?
**A.** Its LOD is 4.43 pg/mL.

**Q.** And the LOD [4]?
**A.** The LOD was 9.76 pg/mL.

**Q.** And the LOD [18]?
**A.** Its LOD is 5.71 pg/mL.

**Q.** And the Ave AEB [5]?
**A.** The Ave AEB was 4.73 AEB.

**Q.** And the S/B [5]?
**A.** Its S/B is 1.29.

**Q.** And the Ave AEB [6]?
**A.** Its Ave AEB is 2.42 AEB.

**Q.** And the S/B [6]?
**A.** The S/B was 2.36.

**Q.** And the Ave AEB [7]?
**A.** The Ave AEB was 0.961 AEB.

**Q.** What about the S/B [7] of the same substance?
**A.** The S/B was 9.84.

**Q.** What about the Ave AEB [8] of the same substance?
**A.** The Ave AEB was 0.0068 AEB.

**Q.** What about the S/B [8] of the same substance?
**A.** Its S/B is 5.41.

**Q.** And the Ave AEB [9]?
**A.** The Ave AEB was 0.0088 AEB.

**Q.** And the S/B [9]?
**A.** The S/B was 7.44.

**Q.** What about the Ave AEB [10] of the same substance?
**A.** The Ave AEB was 13.6 AEB.

**Q.** What about the S/B [10] of the same substance?
**A.** Its S/B is 3.71.

**Q.** What about the Ave AEB [11] of the same substance?
**A.** The Ave AEB was 11.6 AEB.

**Q.** What about the S/B [11] of the same substance?
**A.** Its S/B is 11.3.

**Q.** What about the Ave AEB [12] of the same substance?
**A.** The Ave AEB was 9.35 AEB.

**Q.** What about the S/B [12] of the same substance?
**A.** The S/B was 95.7.

**Q.** What about the Ave AEB [13] of the same substance?
**A.** The Ave AEB was 0.101 AEB.

**Q.** What about the S/B [13] of the same substance?
**A.** Its S/B is 80.4.

**Q.** And the Ave AEB [14]?
**A.** Its Ave AEB is 0.107 AEB.

**Q.** And the S/B [14]?
**A.** The S/B was 90.8.

**Q.** What about the Ave AEB [15] of the same substance?
**A.** Its Ave AEB is 29.5 AEB.

**Q.** And the S/B [15]?
**A.** The S/B was 302.

**Q.** And the Ave AEB [16]?
**A.** The Ave AEB was 0.83 AEB.

**Q.** What about the S/B [16] of the same substance?
**A.** The S/B was 659.

**Q.** What about the Ave AEB [17] of the same substance?
**A.** The Ave AEB was 1.05 AEB.

**Q.** And the S/B [17]?
**A.** The S/B was 892.

**Q.** Which results are given for “Ab-5, rabbit polyclonal to recombinant full-length Human Frataxin (Abcam ab175402) (antibody)”?
**A.** LOD [1]: 52.8 pg/mL; LOD [2]: 33.6 pg/mL; LOD [3]: 7.44 pg/mL; LOD [4]: 4.62 pg/mL; LOD [18]: 2.95 pg/mL; LOD [19]: 1.88 pg/mL; LOD [20]: 4.9 pg/mL; LOD [21]: 1.27 pg/mL; LOD [22]: 5.12 pg/mL; Ave AEB [5]: 0.814 AEB; S/B [5]: 1.51; Ave AEB [6]: 0.469 AEB; S/B [6]: 1.8; Ave AEB [7]: 0.573 AEB; S/B [7]: 5.82; Ave AEB [8]: 0.115 AEB; S/B [8]: 7.3; Ave AEB [9]: 0.106 AEB; S/B [9]: 10.8; Ave AEB [23]: 1.49 AEB; S/B [23]: 26.1; Ave AEB [24]: 0.16 AEB; S/B [24]: 7.69; Ave AEB [25]: 1.61 AEB; S/B [25]: 27.6; Ave AEB [26]: 0.152 AEB; S/B [26]: 6.28; Ave AEB [10]: 3.95 AEB; S/B [10]: 7.32; Ave AEB [11]: 2.64 AEB; S/B [11]: 10.1; Ave AEB [12]: 5.53 AEB; S/B [12]: 56.2; Ave AEB [13]: 1.03 AEB; S/B [13]: 65; Ave AEB [14]: 0.998 AEB; S/B [14]: 101; Ave AEB [27]: 13.1 AEB; S/B [27]: 228; Ave AEB [28]: 1.59 AEB; S/B [28]: 76.4; Ave AEB [29]: 12.4 AEB; S/B [29]: 212; Ave AEB [30]: 1.31 AEB; S/B [30]: 53.9; Ave AEB [31]: 23.7 AEB; S/B [31]: 44.1; Ave AEB [32]: 20.5 AEB; S/B [32]: 78.8; Ave AEB [15]: 21.7 AEB; S/B [15]: 220; Ave AEB [16]: 5.41 AEB; S/B [16]: 343; Ave AEB [17]: 5.93 AEB; S/B [17]: 602; Ave AEB [33]: 28.4 AEB; S/B [33]: 497; Ave AEB [34]: 9.03 AEB; S/B [34]: 434; Ave AEB [35]: 29.3 AEB; S/B [35]: 502; Ave AEB [36]: 8.37 AEB; S/B [36]: 346
